B1: GST-fused PPC2 domain of metalloprotease E495 F5A (protein)
chain: GWTRATQNLDAGYSSLDISMAGGSGDADLYVNFGSASSTSSYECRPYKNGNVETCTIENPQAGTWYIDLQG
B2: GST-fused PPC1 domain of metalloprotease E495 F5A (protein)
chain: EQLFATLDVPAGASNLVFNTNGGSGDADLYVRFGSKPTLSTYDCNSTTSTSTESCSIGSAQAGTYYVMVEA

Biological target: C-phycocyanin, Q54715;Q54714
Test: SPR
Conditions: chain shown with the change, 2 µM analyte, 20 µl/min, 25°C, CPC-coated chip, read off a plot

Row | Binder | response (parent: est. 53) [RU] | response (parent: est. 57) [RU]
1 | B1 | 35 | –
2 | B2 | – | 33

From PMC3327674, “Structural and Functional Characterization of Mature Forms of Metalloprotease E495 from Arctic Sea-Ice Bacterium Pseudoalteromonas sp. SM495” (PLoS ONE, 2012)
